These results are taken from paper PMC7601328.

This data set concerns the target RNA polymerase holoenzyme (beta, beta', alpha, omega, sigma) (Escherichia coli) (UniProt P0A8V2+P0A8T7+P0A7Z4+P0A800+P00579). As to the kind of experiment: EMSA. Particulars: 40 mM Hepes-KOH pH 8, 50 mM KCl, 10 mM Mg acetate, 0.5 mM DTT, 0.005% NP40, 50 uM ATP, 30 C; ~0.3 pmol DNA and 7 pmol RNAP in 200 uL; time course, heparin ….

In the case of “GTGCTGCGAAATCATCGGTGTAAATAGGGCTATATGCCGCGTCTTTTCTGGCTAATTTTATGAAAAGATATTTATTGGCGGCACAAAATAAAGAACAATTTTGAATTCCTTACATTCCTGGCTATTGCACAACTGAATTTAAGGCTCTATTATTACCTCAACAAACCACCCCAATATAAGTTTGAGATTACTACAATGAGCGAAGCACTTAAAATTCTGAA (double strand) [hns promoter fragment, 221 bp (-159 to +62)]”, the binding result is given as “binds”.
